B1: TP53-binding protein 1 (Homo sapiens), Q12888 (parent)
chain: MDPTGSQLDSDFSQQDTPCLIIEDSQPESQVLEDDSGSHFSMLSRHLPNLQTHKENPVLDVVSNPEQTAGEERGDGNSGFNEHLKENKVADPVDSSNLDTCGSISQVIEQLPQPNRTSSVLGMSVESAPAVEEEKGEELEQKEKEKEEDTSGNTTHSLGAEDTASSQLGFGVLELSQSQDVEENTVPYEVDKEQLQSVTTNSGYTRLSDVDANTAIKHEEQSNEDIPIAEQSSKDIPVTAQPSKDVHVVKEQNPPPARSEDMPFSPKASVAAMEAKEQLSAQELMESGLQIQKSPEPEVLSTQEDLFDQSNKTVSSDGCSTPSREEGGCSLASTPATTLHLLQLSGQRSLVQDSLSTNSSDLVAPSPDAFRSTPFIVPSSPTEQEGRQDKPMDTSVLSEEGGEPFQKKLQSGEPVELENPPLLPESTVSPQASTPISQSTPVFPPGSLPIPSQPQFSHDIFIPSPSLEEQSNDGKKDGDMHSSSLTVECSKTSEIEPKNSPEDLGLSLTGDSCKLMLSTSEYSQSPKMESLSSHRIDEDGENTQIEDTEPMSPVLNSKFVPAENDSILMNPAQDGEVQLSQNDDKTKGDDTDTRDDISILATGCKGREETVAEDVCIDLTCDSGSQAVPSPATRSEALSSVLDQEEAMEIKEHHPEEGSSGSEVEEIPETPCESQGEELKEENMESVPLHLSLTETQSQGLCLQKEMPKKECSEAMEVETSVISIDSPQKLAILDQELEHKEQEAWEEATSEDSSVVIVDVKEPSPRVDVSCEPLEGVEKCSDSQSWEDIAPEIEPCAENRLDTKEEKSVEYEGDLKSGTAETEPVEQDSSQPSLPLVRADDPLRLDQELQQPQTQEKTSNSLTEDSKMANAKQLSSDAEAQKLGKPSAHASQSFCESSSETPFHFTLPKEGDIIPPLTGATPPLIGHLKLEPKRHSTPIGISNYPESTIATSDVMSESMVETHDPILGSGKGDSGAAPDVDDKLCLRMKLVSPETEASEESLQFNLEKPATGERKNGSTAVAESVASPQKTMSVLSCICEARQENEARSEDPPTTPIRGNLLHFPSSQGEEEKEKLEGDHTIRQSQQPMKPISPVKDPVSPASQKMVIQGPSSPQGEAMVTDVLEDQKEGRSTNKENPSKALIERPSQNNIGIQTMECSLRVPETVSAATQTIKNVCEQGTSTVDQNFGKQDATVQTERGSGEKPVSAPGDDTESLHSQGEEEFDMPQPPHGHVLHRHMRTIREVRTLVTRVITDVYYVDGTEVERKVTEETEEPIVECQECETEVSPSQTGGSSGDLGDISSFSSKASSLHRTSSGTSLSAMHSSGSSGKGAGPLRGKTSGTEPADFALPSSRGGPGKLSPRKGVSQTGTPVCEEDGDAGLGIRQGGKAPVTPRGRGRRGRPPSRTTGTRETAVPGPLGIEDISPNLSPDDKSFSRVVPRVPDSTRRTDVGAGALRRSDSPEIPFQAAAGPSDGLDASSPGNSFVGLRVVAKWSSNGYFYSGKITRDVGAGKYKLLFDDGYECDVLGKDILLCDPIPLDTEVTALSEDEYFSAGVVKGHRKESGELYYSIEKEGQRKWYKRMAVILSLEQGNRLREQYGLGPYEAVTPLTKAADISLDNLVEGKRKRRSNVSSPATPTASSSSSTTPTRKITESPRASMGVLSGKRKLITSEEERSPAKRGRKSATVKPGAVGAGEFVSPCESGDNTGEPSALEEQRGPLPLNKTLFLGYAFLLTMATTSDKLASRSKLPDGPTGSSEEEEEFLEIPPFNKQYTESQLRAGAGYILEDFNEAQCNTAYQCLLIADQHCRTRKYFLCLASGIPCVSHVWVHDSCHANQLQNYRNYLLPAGYSLEEQRILDWQPRENPFQNLKVLLVSDQQQNFLELWSEILMTGGAASVKQHHSSAHNKDIALGVFDVVVTDPSCPASVLKCAEALQLPVVSQEWVIQCLIVGERIGFKQHPKYKHDYVSH

Variants of: B1
Settings: with h4_human H4C16, P62805

Row | Variant | effect of a mutation on the interaction
1 | D1521R | disrupting interaction strength
